Test results from US20100261660A1 (published 2010).
Where a chain is given by its changes, count along the chain named.

B1: Round 1 CD28BP-126 (ligand)
chain: ITPKSVTKRVKETVMLSCDYSTSTEELTSLRIYWQKDSKMVLAILPGKVQVWPEYKNRTITDMNDNPRIVILALRLSDSGTYTCVIQKPDLKGAYKLEHLTSVRLMIRADFPVPTINDLGNPSPNIRRLICSTSGGFPRPHLYWLENGEELNATNTTVSQDPGTELYMISSELDFNVTNNHSIVCLIKYGELSVSQIFPWSKPKQEPPIDQLPFWVIIPVSGALVLTAVVLYCLACRHVARWKRTRRNEETVGTERLSPIYLGSAQSSG
notes: also called R1clone 126; Clone 126
B2: Round 2 CD28A4-5* (ligand)
chain: B1 chain with S21N, D90V, V158L, G163E, E165K
B3: Round 2 CD28A8-4 (ligand)
chain: B1 chain with S21N, D90V
B4: Round 2 CD28BP-4 (ligand)
chain: B1 chain with S21N, D90V, T101A, Y143C
B5: Round 2 CD28BP-2 (ligand)
chain: B1 chain with D90V, T101A, V158L, G163E, E165K, C233R, L234P
B6: Round 2 CD28A6-1 (ligand)
chain: B1 chain with S21N, D90V, T101A, G163E, E165K, W215R, V229I
B7: Round 2 CD28A6-9 (ligand)
chain: B1 chain with S21N, D90V, T101A, W215L
B8: Round 2 CD28B2-8 (ligand)
chain: B1 chain with S21N, S79K, D90V, T101A
B9: Round 2 CD28D10-4 (ligand)
chain: SGITPKSVTKRVKETVMLSCDYNTSTEELTSLRIYWQKDSKMVLAILPGKVQVWPEYKNRTITDMNDNPRIVILALRLSDKGTYTCVVQKNENGSFRREHLTSVTLSIRADFPVPSITDIGHPAPNVKRIRCSASGGFPEPRLAWMEDGEELNAVNTTVDQDLDTELYSVSSELDFNVTNNHSIVCLIKYGELSVSQIFPWSKPKQEPPIDQLPFWVIIPVSGALVLTAVVLYCLACRHVARWKRTRRNEETVGTERLSPIYLGSAQSSG
B10: Round 2 CD28G1-5 (ligand)
chain: SGITPKSVTKRVKETVMLSCDYSTSTEELTSLRIYWQKDSKMVLAILPGKVQVWPEYKNRTFPDIINNLSLMILALRLSDKGTYTCVVQKNENGSFRREHLTSVTLSIRADFPVSSITDIGHPAPNVKRIRCSASGGFPEPRLAWMEDGEELNAVNTTVDQDLDTELYSVSSELDFNVTNNHSIVCLIKYGELSVSQIFPWSKPKQEPPIDQLPFWVIIPVSGALVLTAVVLYCLACRHVARWKRTRRNEETVGTERLSPIYLGSAQSSG
B11: Round 2 CD28F3-5 (ligand)
chain: B9 chain with K81S
notes: also called GD28F3-5
B12: Round 2 CD28BP-11 (ligand)
chain: B9 chain with T24A
B13: Round 2 CD28A8-6 (ligand)
chain: B9 chain with L18P, N23S, K81S
B14: Round 2 CD28BP-17 (ligand)
chain: B10 chain with S115P, G137D, A229V
B15: Round 2 CD28BP-8 (ligand)
chain: ITPKSVTKRVKETVMLSCDYNTSTEELTSLRIYWQKDSKMVLAILPGKVQVWPEYKNRTITDMNDNPRIVILALRLSDSGTYTCVIQKPVLKGAYKLEHLASVRLMIRADFPVPSITDIGHPAPNVKRIRCSASGGFPEPRLAWMEDGEELNAVNTTVDQDLDTELYSVSSELDSNVTNNHSIVCLIKYGELSVSQIFPWSKPKQEPPIDQLPFWVIIPVSGALVLTAVVLYCLACRHVARWKRTRRNEETVGTERLSPIYLGSAQSSG
B16: Round 1 (R1) CD28BP-71 (ligand)
chain: ITPKSVTKRVKETVMLSCDYNTSTEELTSLRIYWQKDSKMVLAILPGKVQVWPEYKNRTITDMNDNPRIVILALRLSDSGTYTCVIQKPVLKGAYKLEHLASVRLMIRADFPVPTINDLGNPSPNIRRLICSTSGGFPRPHLYWLENGEELNATNTTLSQDPETKLYMISSELDFNMTSNHSFLCLVKYGDLTVSQTFYWQESKPTPSANQHLTWTIIIPVSAFGISVIIAVILTCLTCRNAAIRRQRRENEVEMQSCSQSP
notes: also called R1clone71; Clone 71
B17: Round 2 CTLA4 A-C9-9 (ligand)
chain: B10 chain with K81R, S115P, S171G, C237R
B18: Round 2 CTLA4BP-5x2-10c (ligand)
chain: VIHVTKEVKEVATLSCGHNVSVEELAQTRIHWQKEKKMVLTMMSGDMNIWPEYKNRTIFDITNNLSIVILALRPSDEGTYECVVLKYEKDAFKREHLAEVMLSVKADFPTPSITDFEIPPSNIRRIICSTSGGFPEPHLSWLENGEELNAINTTVSQDPETELYTVSSKLDFNMTANHSFVCLIKYGHLRVNQTFNWNTPKQEHFPDNLLPSWAITLISVNGIFVICCLTYCFAPRCRERRNETLRRESVRPV
B19: Round 2 CTLA4 A-H3-6 (ligand)
chain: GISQVTKSVKEMAALSCDYNISIDELARMRIYWQKDQQMVLSIISGQVEVWPEYKNRTFPDIINNLSLMILALRLSDKGTYTCVVQKNENGSFRREHLTSVTLSIRADFPVPSINDLGNPSPNIRRLICSTSGGFPRPHLYWLENGEELNATNTTLSQDPETKLYMISSELDFNMTSNHSFLCLVKYGDLTVSQTFYWQESKPTPSANQHLTWTIIIPVSAFGISVIIAVILTCLTCRNAAIRRQRRENEVEMQSCSQSP
B20: Round 1 CTLA4BP-7 (ligand)
chain: VIHVTNEVKEVATLSCGHNVSGEELAQTRIYWQKEKKMVLTMMYGDMNIWPEYKNRTIFDITNNLSIVILALRPSDEGTYECVVLKYEKDAFKREHLAEVMLSVKADFPTPSITDFEIPPSNIRRIICLTSGGFPEPRLAWMKDGEELNAISTTVSQDPGTELYAVSSKLDFNMTTNHSFMCLIKYGHLRVNQTFSWNTPKQEHFPDNLLPSWAITLISVNGIFVICCLTYCFAPRCRERRRNERLRRESVRPV
notes: also called R1-7; R1 CTLA-4BP-7
B21: Round 2 CTLA4 A-H4-5* (ligand)
chain: ITPKSVTKRVKETVMLSCDYSTSTEELTSLRIYWQKDSKMVLAILPGKVQVWPEYKNRTITDMNDNPRIVILALRLSDKGTYTCVVQKNENGSFRREHLTSVTLSIRADFPVPSITDIGHPAPNVKRIRCSASGGFPEPRLYWLENGEELNATNTTVSQDPGTELYMISSELDFNVTNNHSIVCLIKYGELSVSQIFPWSKPKQEPPIDQLPFWVIIPVSGALVLTAVVLYCLACRHVARWKRTRRNEETVGTERLSPIYLGSAQSSG
B22: Round 2 CTLA4BP-5x2-11d (ligand)
chain: VIHVTKEVKEVATLSCGHNVSVEELAQTRIHWQKEKKMVLTMMSGDMNIWPEYKNRTIFDITNNLSIVILALRPSDEGTYECVVLKYEKDAFKREHLAEVMLSVKADFPTPSITDFEIPPSNIRRIICSTSGGFPEPHLFWLENGEELNAINTTVSQDPETELYTVSSKLDFNMTTDRSFVCLIKYGHLRVNQTFNWNTPKQEHFPDNLLPSWAITLISANGIFVICCLTYCFAPRCRERKSNETLRRESVRPV
B23: Round 2 CTLA4 A-B4-6 (ligand)
chain: ITPKSVTKRVKETVMLSCDYNTSTEELTSLRIYWQKDSKMVLAILPGKVQVWPEYKNRTITDMNDNPRIVILALRLSDKGTYTCVVQKNENGSFRREHLTSVTLSIRADFPVPTINDLGNPSPNIRRLICSTSGGFPRPHLYWLENGEELNATNTTLSQDPETKLYMISSELDFNMTSNHSFLCLVKYGDLTVSQTFYWQESKPTPSANQHLTWTIIIPVSAFGISVIIAVILTCLTCRNAAIRRQRRENEVEMQSCSQSP
B24: Round 2 CTLA4 A-F10-1 (ligand)
chain: B23 chain with F197L
B25: Round 2 CTLA4 A-E2-6 (ligand)
chain: B23 chain with K79S, T103R, S105M, S158P
B26: Round 2 CTLA4 A-F1-6 (ligand)
chain: B23 chain with N21S, T103R, S105M

Each binder was assayed against T1, Soluble CD28-Ig (extracellular domain of human CD28 fused to the Fc portion of human IgG1) (human, UniProt P10747 19-152, biotin-conjugated (NHS-biotin) in the FACS binding assays) (assay: competitive FACS on transfected cells, biotin-sCD28-Ig with FITC-sCTLA-4-Ig; grade 0-2 of CD28/CTLA-4 ratio vs WT hB7-1).
T1 construct: extracellular domain; bought from R&D Systems; also called sCD28-Ig; CD28-Ig Fc; not shown: Fc portion of human IgG1

Binder	Binding Score
B1	1
B2	1
B3	1
B4	2
B5	2
B6	1
B7	1
B8	1
B9	0
B10	1
B11	0
B12	2
B13	1
B14	2
B15	2
B16	1

The binders below were run against T2, Soluble CTLA-4-Ig (extracellular domain of human CTLA-4 fused to the Fc portion of human IgG1) (human, UniProt P16410 36-161, FITC-conjugated in the FACS binding assays) (assay: competitive FACS on transfected cells, FITC-sCTLA-4-Ig with biotin-sCD28-Ig; grade 0-2 of CTLA-4/CD28 ratio vs WT hB7-1).
T2 construct: extracellular domain; bought from R&D Systems; also called sCTLA-4-Ig; CTLA-4-Ig Fc; not shown: Fc portion of human IgG1
T2 sequence (P16410 36-161): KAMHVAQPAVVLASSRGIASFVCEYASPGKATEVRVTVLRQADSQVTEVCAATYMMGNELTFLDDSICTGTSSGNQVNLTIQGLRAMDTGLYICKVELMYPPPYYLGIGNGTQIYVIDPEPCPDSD

Binder	Binding Score
B17	0
B18	2
B19	1
B20	1
B21	1
B22	2
B23	1
B24	1
B25	1
B26	1
